± gives the uncertainty stated by the source.
Experiment: self-splicing fitness, log relative to wild type (ln ratio); higher = more splicing; Tetrahymena group I intron in knt gene, E. coli kanamycin selection, DiMSum; sequences stand for … in CUCUCU…GGAGGGAAAAGUUAUCAGGCAUGCACCUGGUAGCUAGUCUUUAAACCAAUAGAUUGCAUCGGUUUAAAAGGCAAGACCGUCAAAUUGCGGGAAAGGGGUCAACAGCCGUUCAGUACCAAGUCUCAGGGGAAACUUUGAGAUGGCCUUGCAAAGGGUAUGGUAAUAAGCUGACGGACAUGGUCCUAACCACGCAGCCAAGUCCUAAGUCAACAGAUCUUCUGUUGAUAUGGAUGCAGUUCACAGACUAAAUGUCGGUCGGGGAAGAUGUAUUCUUCUCAUAAGAUAUAGUCGGACCUCUCCUUAAUGGGAGCUAGCGGAUGAAGUGAUGCAACACUGGAGCCGCUGGGAACUAAUUUGUAUGCGAAAGUAUAUUGAUUAGUUUUGGAGUACUCGUGGUCG
How it was run: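 The eight P1ex-region nucleotides of an intron in the knt kanamycin-resistance gene on pET-22b(+) were all randomised and the library put into E. coli BL21(DE3). Six replicate transformations were grown overnight at 37°C or 30°C on LB agar with or without 25 μg/mL kanamycin, together with 100 μg/mL carbenicillin, 50 μM IPTG and 0.2% rhamnose. Colonies were pooled and amplicon-sequenced on an Illumina HiSeq 2500. Fitness from DiMSum is the error-weighted combination of wild-type-normalised replicate fold changes, kanamycin over none.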

Row | Sequence | self-splicing fitness (ln) (30 °C) | self-splicing fitness (ln) (37 °C)
1 | ACCUAGCAAUAUUACGUCUU | -0.806 ± 0.064 | -0.667 ± 0.075
2 | CUGUAGCAAUAUUACGUCAG | -3.53 ± 0.23 | -2.88 ± 0.34
3 | AACGAGCAAUAUUACGGCAA | -1.49 ± 0.27 | -1.9 ± 0.24
4 | UCUCAGCAAUAUUACGUCGU | -2.11 ± 0.091 | -1.91 ± 0.11
5 | CCAAAGCAAUAUUACGUGCC | -3.77 ± 0.35 | -2.31 ± 0.35
6 | CUCGAGCAAUAUUACGGCAA | -1.82 ± 0.32 | -2.31 ± 0.27
7 | CGCGAGCAAUAUUACGUGUU | -3.1 ± 0.15 | -2.75 ± 0.17
8 | UUCGAGCAAUAUUACGCUCU | -3.38 ± 0.15 | -2.43 ± 0.14
9 | AUAAAGCAAUAUUACGCCAU | -0.694 ± 0.095 | -0.176 ± 0.14
10 | CGGUAGCAAUAUUACGGUUC | -2.96 ± 0.3 | -1.93 ± 0.29
11 | UGAAAGCAAUAUUACGGCAG | -0.742 ± 0.094 | -0.105 ± 0.11
12 | GGCGAGCAAUAUUACGCACU | -2.83 ± 0.34 | -1.07 ± 0.28
13 | ACGUAGCAAUAUUACGCUCA | -0.72 ± 0.12 | 0.189 ± 0.11
14 | AAUAAGCAAUAUUACGGAUG | -2.21 ± 0.1 | -1.39 ± 0.1
15 | AAUGAGCAAUAUUACGGUCA | -1.92 ± 0.28 | -1.45 ± 0.36
16 | GGGCAGCAAUAUUACGCACA | -0.436 ± 0.23 | 0.448 ± 0.23
17 | UCAAAGCAAUAUUACGCCCA | -1.32 ± 0.14 | -0.49 ± 0.16

Row | Sequence | self-splicing fitness (ln) (30 °C) | self-splicing fitness (ln) (37 °C)
18 | CAGAAGCAAUAUUACGGGCU | -3.96 ± 0.24 | -1.83 ± 0.16
19 | GUGUAGCAAUAUUACGUGUG | -3.21 ± 0.18 | -1.69 ± 0.15
20 | UCGCAGCAAUAUUACGGAGU | -2.32 ± 0.21 | -1.92 ± 0.23
21 | GCGGAGCAAUAUUACGCCUU | – | -2.17 ± 0.49
22 | CCUAAGCAAUAUUACGAUAG | -1.12 ± 0.065 | -0.285 ± 0.074
23 | CUACAGCAAUAUUACGUCCU | -3.25 ± 0.18 | -2.38 ± 0.17
24 | GAUGAGCAAUAUUACGUCUU | -1.41 ± 0.12 | -0.691 ± 0.12
25 | ACCAAGCAAUAUUACGGCGA | -0.805 ± 0.064 | -0.254 ± 0.072
26 | UUCCAGCAAUAUUACGCGAC | -3.35 ± 0.24 | -0.902 ± 0.19
27 | CAAUAGCAAUAUUACGACUG | -0.326 ± 0.063 | -0.0987 ± 0.081
28 | CGAAAGCAAUAUUACGGUAA | -2.13 ± 0.16 | -1.56 ± 0.15
29 | CUCGAGCAAUAUUACGAUUU | -3.73 ± 0.2 | -2.91 ± 0.21
30 | CAAGAGCAAUAUUACGCGGU | -3.05 ± 0.17 | -1.81 ± 0.21
31 | ACGCAGCAAUAUUACGAGAU | -3.32 ± 0.14 | -2.68 ± 0.18
32 | AUCGAGCAAUAUUACGGGCG | -2.97 ± 0.16 | -2.37 ± 0.19
33 | AACCAGCAAUAUUACGGUCC | -0.721 ± 0.089 | -0.491 ± 0.12

From the supplement of paper PMC7877785
